From article PMC10638403, “A closed translocation channel in the substrate-free AAA+ ClpXP protease diminishes rogue degradation” (Nature Communications, 2023)

B1: E. coli ClpP (enzyme)
chain: not shown
notes: ClpP peptidase, E. coli; models hold residues 2-193 of each subunit; also called ClpP14; double-ring ClpP tetradecamer; source: E. coli HMS174(DE3), pT7 plasmid, purified (Ni-NTA, size-exclusion chromatography); copies: 14
B2: full-length E. coli ClpX (enzyme)
chain: not shown
notes: ClpX, E. coli, full length, with a neutral K408E mutation; The methods tell two purifications for full-length ClpX (Ni-NTA, gel filtration and ion exchange; or ammonium sulfate, phenyl-Sepharose and mono-Q), so the His6 tag on this form is not certain; The N-terminal domains were not visible in the map; models typically hold residues 65-413; also called wild-type ClpX; ClpX6; source: E. coli …

What was measured:
full-length E. coli ClpX = target: B2; assay: cryo-EM structure; ClpX6 (5.8 µM), ClpP14 (1.9 µM), λO-Arc (20 µM dimer), ATPγS (2.5 mM) in 25 mM HEPES (pH 7.5), 100 mM KCl, 25 mM MgCl2; ClpX and ClpP incubated with ATPγS for 5 min at room temperature before λO-Arc was added; the substrate-free class was refined; settings: both partners purified
[1] = target: the molecule itself; assay: cryo-EM structure; single-chain ClpX^∆N (3 µM pseudohexamer) and ClpP (1.5 µM tetradecamer) in 20 mM HEPES (pH 7.5), 100 mM KCl, 25 mM MgCl2, incubated with ATP (5 mM) for 15 min at room temperature; doubly capped and singly capped particles
[2] = target: the molecule itself; assay: cryo-EM structure; ClpX6 (5.8 µM), ClpP14 (1.9 µM), λO-Arc (20 µM dimer), ATPγS (2.5 mM) in 25 mM HEPES (pH 7.5), 100 mM KCl, 25 mM MgCl2; ClpX and ClpP incubated with ATPγS for 5 min at room temperature before λO-Arc was added; the substrate-free class was refined

binding result (full-length E. coli ClpX)	Binder	stoichiometry N [1]	stoichiometry N [2]
binds	B1	14 subunits	–
–	B2	–	6 subunits
